According to the DeepSol protein solubility set:

assay: soluble on expression in E. coli; label from the status in PepcDB or PDB records

| Sequence | soluble on expression in E. coli |
| --- | --- |
| MSTSTLQSEQSMEIITPPADIGTRTLVDKAAQFVSKKGLEFETKIIDSYPTDAKFNFLRSTADPCHTYYKHKLAEYSSQNQDGATDESDIKIFHAPPNVTTTAIVETTSCLVSQFGSEFEMMVKDSNTDDARFNFLKSSEDPYNVLYKQKLDEYSLDPRDAYYQHKLAESISKYHREATPKLVLPNLLQFRLVKEMTFEELDTVKVTAQFVAWYGDDFRGFLMERVMTEPQFEFMKATDYRFSFYNEFVVAYSQVLNPPKYLKDKLRGRAAYTVIGHLLITMSEEEIS | soluble |
| MGSDKIHHHHHHMQIKNTQLGHIAWCETTAQHIAPQDFAVDGWREKNAVVGQSKGRYTTWFVKTDNSDSPQTWVLRHYWRGGMMEKFSRDAYFYTGLQRTRAVAELAILEVLYQEGFAVPRPIAANVERFGLWYRADIIIEHVAGANDLVAYLSHNPMTESQWYLLGETIAKFHQRGVYHADLNAKNILLAHGEFYLIDFDRGELRTPQPTWQQANLDRLLRSFNKEHAKLTTLQFSQQHWLQLLAGYQSINPI | not soluble |
| MGSDKIHHHHHHLKVVCISDTHEQLHNVTVPDGDVLIHAGDFTNNGKREELIKFNEEMTRFPHKYKLVVAGNHELGFDHDENQGERQDADKGLGTEDGYNILTNVTYLQDKGVTIDGVTFFGSSYHPLRGFPFYRNRAEQLAECWKAVPNDTNVLITHTPPLGYLDQFGDERWGCRDLLKTVERIQPAYHIFGHVHEQHGVLSNGNTVCYKLYENEF | not soluble |
| MEIAFLLNGETRRVRIEDPTQSLLELLRAEGLTGTKEGCNEGDCGACTVMIRDAAGSRAVNACLMMLPQIAGKALRTIEGIAAPDGRLHPVQQAMIDHHGSQCGFCTPGFIVSMAAAHDRDRKDYDDLLAGNLCRCTGYAPILRAAEAAAGEPPADWLQADAAFTLAQLSSGVRGQTAPAFLPETSDALADWYLAHPEATLIAGGTDVSLWVTKALRDLPEVAFLSHCKDLAQIRETPDGYGIGAGVTIAALRAFAEGPHPALAGLLRRFASEQVRQVATIGGNIANGSPIGDGPPALIAMGASLTLRRGQERRRMPLEDFFLEYRKQDRRPGEFVESVTLPKSAPGLRCYKLSKRFDQDISAVCGCLNLTLKGSKIETARIAFGGMAGVPKRAAAFEAALIGQDFREDTIAAALPLLAQDFTPLSDMRASAAYRMNAAQAMALRYVRELSGEAVAVLEVMP | soluble |
| MNKRVQAFLAKMQEKELDGIIINNLKNVYYLTGFWGSNGTVFISRDRQVLVTDSRYIIAAKQETSGFEIVADRDELAVIAGIVKDMGLTRIGFEDEISVSYYHRMQAAFAGLNLLPQTQFVEGLRMIK | not soluble |
| MGHHHHHHHHHHSSGHIDDDDKHMYTKIIGTGSYLPEQVRTNADLEKMVDTSDEWIVTRTGIRERHIAAPNETVSTMGFEAATRAIEMAGIEKDQIGLIVVATTSATHAFPSAACQIQSMLGIKGCPAFDVAAACAGFTYALSVADQYVKSGAVKYALVVGSDVLARTCDPTDRGTIIIFGDGAGAAVLAASEEPGIISTHLHADGSYGELLTLPNADRVNPENSIHLTMAGNEVFKVAVTELAHIVDETLAANNLDRSQLDWLVPHQANLRIISATAKKLGMSMDNVVVTLDRHGNTSAASVPCALDEAVRDGRIKPGQLVLLEAFGGGFTWGSALVRF | soluble |
| NEKFRPEMLQGKKVIVTGASKGIGREIAYHLAKMGAHVVVTARSKEALQKVVARCLELGAASAHYIAGSMEDMTFAEEFVAEAGNLMGGLDMLILNHVLYNRLTFFHGEIDNVRKSMEVNFHSFVVLSVAAMPMLMQSQGSIAVVSSVAGKITYPLIAPYSASKFALDGFFSTLRSEFLVNKVNVSITLCILGLIDTETAIKATSGIYLGPASPKEECALEIIKGTALRQDEMYYVGSRWVPYLLGNPGRKIMEFLSAAEYNWDNVLSNEKLYGRWA | soluble |
| DDHSRALGRTTVNSNLGQGQVSGAESGAKTAEPAWIDFMQVALEGKPEQGKNIPDDIVRVRIDRNSGLLTHKVDSTSMFEYFEKGTEPTEYVGNSLEDSIYSSGSGGTTEELF | not soluble |
| RGNLGQSQKVLIEFVSANPTGPLHVGHGRGAAFGATLGNVLKAAGYDVTLEYYVNDAGRQMNILAVSVWLRYLELAGEPIVFPANGYKGQYVYEIAQEIWSEQGNQFVHPWISVVENLPADEPEGGDKETYIDAIIARAQSLLGKDGFANFHQHALKTVLDDIKDDLQAFGVRFDSWFSEQSLFEDGSIEKGIQALKDRGHTYEREGALWFRATDFGDEKDRVLVRANGQTTYFASDVAYHWNKYDRGFDRVIDIFGADHHGYVTRIKTAVKALGHDESALDVILVQFAILYRGGDRVQMSTRSGSFVTLRELREEVGNDAARYFYVARKPEQHMDFDLDLAKSESSDNPVYYIQYAHARICSVLRQLKERGLKWDKDMGL | not soluble |
| MEGIPGQRDGVYWLPPAEDGKDPATPWWLCSPLHVLAETRDASQSNWGRLLEWRDNDGHPHRWACPVEMLAASDTAEFRRELVRGGLTMSTSQKARQKLVDYVLSHRQAAATRLRCVSRIGWHDVRYVLPGEVHGEQDGEGVIYQGADSGDFDRAGTLQEWQTHIAAAAAGNSRIVFAISVAFAGVLADMAGESGGGFHFVGTTSKGKTSTLLDPAASVWGNPDQFAKKWRTTQNGLEGLCLGRNDNLLILDELAQIAPADAGGAAYLIANGQAKARMTKEGGNRPAHTWRVMLLSAGEIDLAQHMAEAGKSAKGGQIARLPAIPADAGAGMGTLEQLHQHPSGQAFADAMKAYSRQYYGTAGPAFLAALTPPECMDEIRRDIKDGVTGLIEYLGVPAGAAQEVGRVAARFALVAFAGELATRYGVTGWKPGEAVQAARRCFREWLAENHTGMAADDRALFAQVSGFMQTHSSTRFPPHDAAPEVLARYLNRAGFTFIDEQGTQQFWVLSEPFKKELCRGYTPLIAARSLLRAGWLLAGDTEGNTRRHTRKKRIKALDSATVNVYVLTSTVLEGEELEHHHHHH | not soluble |
| MTNIWKKNYETAKEVEEFVKKAYELGDVTELELLRAKRERSIAEVKLKVSRSKYEASLKELSRLLAKEVRDVEGELSAGVAMKEVNIDTLPVVLSIKKKIEAIDRQIQLEKALAKPKLATGFVVEESEEGYYGLRGSLTLELPLFYRREGEILQNIAMKKALKRRLEAELLKVKSRLESVKIRLETLQKELEKLEREVIPRAREELALAIKSYKLKAITLLELSDVRRKYYELLINRAELLLDIHRTYSEFIEIGGWRR | not soluble |
| MGHHHHHHSHMNKHQKPVLTGQRFKTRKRDEKEKFEPTVFRDTLVQGLNEAGDDLEAVAKFLDSTGSRLDYRRYADTLFDILVAGSMLAPGGTRIDDGDKTKMTNHCVFSANEDHETIRNYAQVFNKLIRRYKYLEKAFEDEMKKLLLFLKAFSETEQTKLAMLSGILLGNGTLPATILTSLFTDSLVKEGNEAPVFSPVRQQKKNKVTDS | not soluble |
| MSLTDIRDHRDMLTVHHLNNSRSQRVLWLLEELDTPYEIKRYQRQPDMMAPKELRAVHPLGKSPVITDNGNTIAESGAIIEYIVGTYGNGRLIPPPNTPERLRYTYWLHYAEGSAMPPLLLKLLFSMMPQRAPALVRPLVKMVASGALTGFVDPQLKLHMDYWESELGKAAYFAGDEFTAADIQMSFPLEAAAARGGLDQRYPKAQAWLERIHARPAYNRALEKGGPYEIGKAEGHHHHHH | soluble |
| MAHHHHHHMGCSASKDTTNSKDGAASKGGKDGKTTADRKVAWERIRCAIPRDKDAESKSRRIELFKRFDTNGTGKLSFREVLDGCYSILKLDEFTTHLPGIVQRAFDKAKDLGNKVKGVGEEDLVEFLEFRLMLCYIYDIFELTVMFDTMDKDGSLLIELQEFKEALPKLKEWGVDITDATTVFNEIDTNGSGVVTFDEFSCWAVTKKLQVCGDPDGEGAAKTTADRKVAWERIRCAIPRDKDAESKSRRIELFKQFDTNGTGKLGFREVLDGCYSVLKLDEFTTHLPDIVQRAFDKAKDLGNRVKGVGEEDLVEFLEFRLMLCYIYDIFELTVMFDTMDKDGSLLLELQEFKEALPKLKEWGVDITDATTVFNEIDTNGSGVVTFDEFSCWAVTKKLQVCGDPDGEENGANEGN | soluble |
| MGSDKIHHHHHHMRVSVRNLTKIFRVGSIFSLKKLVAIDNVSFEIGSGEIFSLAGESGCGKTTTAKILLGLEEPTNGEVLYDGIKLKDFVENEMHFLKKVQTVQQNPFSTFNPFRKVEDYLFKTVLRFKMANTKDEALRLIEEKLSVVGLNFDEIKGRYPSEFSGGQLQRISIARALLTNPSFLVADEPVSMIDASLRISIVNLFRDLKERFGISILYITHDLSTAYYVADKLAIMFRGSIVEMGRAQDILDTPFHPYTKLLKSSIPVPDPEYEWDENINLSSTEREEFFAKGCKFASRCPEVMSICRESVPPDFDVNGRVVKCWLYK | not soluble |
| MSQIEKKQLQLGYIPLLDCIALLWAKERGYFEEMGLDVTLVKEASWASLRDRLAFGILDAAHCLSAMLPAAAIGEDQIGIPLKTPLVLSKNRAYISLSQKLCYELSIQNADNAQENSAKLVKYLEQEQSIALAHVFHHSIHHYCLREWLALSHLDLAKAIQLKTLPPPYMLDALASASIDGFCVGEPWNTQGEIEGYSQIVASSRDIIPEVADKVLAVTEEWAAHHPNTVIALTAAILKAQQELETLSNLEPVWQILINFNIVRFQCSKSVHVKSYHALEQIIRHLVVGQAAPCSEDMLWLFGQMQKWHDLTIETTALNELSQRCIDQNSFEKAMQHVQSNTGLEHHHHHH | not soluble |
| EERRVAYPVLRELTERTGETSALMVWNGNESMCVEQIPSRHQVKHLAPLGARYNEALSSSVQVFLASENEDRVRQLLRSGSITLTGVDEDAVEAYLLRLKESMERGWAVNFGETSIEEVGVASPVYDHRGNMVASVLIPAPKFRVSQDTLNSLGEACAAAAAKVTTRLGGRAPH | soluble |
| MIEGIIEEIRTNGSFLITTHENPDGDAVGSSLALAGYLRRLGKDVTIHFCDPVPDLYAFLPLAEEVTRTVPDRDYDICFVLDVGEFRRAGKQIAECKRIKKFINIDHHLTSDNFGFINYIDPKAAATGILVHRIITGAGDVVGYETALCLYTAIITDTGSFRYSNANPEAFAIAGELVSTGINTWSIAEKLYESQPRERLELLALALSTLTISPRGEYASITVTLDMYNKTGASAELTDGFVNYPRSIRGVEVSVFFREINPGLFKVGFRSKGKIDVSRIAAAFGGGGHHNAAGATMNGSLEGIKATLFSHLESTLLEHHHHHH | not soluble |
| VVTRQLGRAPRGVLAIAYRCPNGEPGVVKTAPRLPDGTPFPTLYYLTHPVLTAAASRLETTGLMREMNRRLGQDAELAAAYRRAHESYLSERDALEPLGTTVSAGGMPDRVKCLHVLIAHSLAKGPGLNPFGDEALALLAAEPRTAATLVAGQWR | soluble |
| MSAGPIVERNQDATIYVGGLDEKVSESILWELMVQAGPVVSVNMPKDRVTANHQGFGFVEFMGEEDADYAIKILNMIKLYGKPIKVNKASAHEKNMDVGANIFVGNLDPEVDEKLLYDTFSAFGVILQVPKIMRDVDSGTSKGFAFINFASFEASDTALEAMNGQFLCNRAITVSYAFKRDSKGERHGTAAERMLAAQNPLFPKDRPHQVFSDVPLGVPANTPLAMPGVHAAIAAHATGRPGYQPPPLMGMAQSGYQGQYPPVPPPPPSVTPMPPPMPPTPGMTPRPPPPPSSGMWPPPPPPPPGRTPGPPGMPGMPPPPPPSRFGPPGMGGMPPPPPPGMRYPGGMPPPPPPRYPSAGPGMYPPPPPSRPPAPPSGHGMIPPPPPPS | not soluble |
